B1: Homeobox protein cut-like 2, residues 895 to 963; numbered along this chain, O14529 (parent)
chain: EVDTLELTRQVKEKLAKNGICQRIFGEKVLGLSQGSVSDMLSRPKPWSKLTQKGREPFIRMQLWLSDQL

± gives the uncertainty stated by the source.

Variants of B1 are the subject of the data set. As to the kind of experiment: abundance fitness (aPCA) (normalised: wild type 0, dead -1); higher = more abundant; growth selection in yeast, the domain comes from the species named. The conditions noted are these: Homo sapiens.
For the variant T8L, the abundance fitness was -0.157 ± 0.026. The result for T8Q reads -0.333 ± 0.039. The result for T8P reads -0.185 ± 0.038; that for T8W, -0.206 ± 0.032; that for T8G, -0.204 ± 0.04. On to T8C, for which the abundance fitness was -0.022 ± 0.035. With D3I the figure was -0.541 ± 0.06. With D3R the figure was -0.316 ± 0.043. Turning to D67L, the abundance fitness is -0.389 ± 0.028. Take D67F: the abundance fitness is -0.64 ± 0.045. The result for D67Q reads 0.057 ± 0.068. With D67I the figure was -0.603 ± 0.074; with P57H, -0.026 ± 0.041. The result for R55G reads -0.674 ± 0.06; that for R55Q, -0.303 ± 0.042. In the case of R55D, the abundance fitness was -0.954 ± 0.094. As to R55F, the abundance fitness was -0.569 ± 0.06. The result for R55A reads -0.511 ± 0.039; that for R55N, -0.671 ± 0.088; that for R55M, -0.385 ± 0.044.

For the variant L69F, the abundance fitness is -0.083 ± 0.054. The result for L69I reads -0.221 ± 0.11; that for L69D, -0.188 ± 0.18; that for L69Y, -0.096 ± 0.098. As for L69Q, the abundance fitness was -0.092 ± 0.074. The result for L69R reads -0.08 ± 0.04. With L69K the figure was -0.041 ± 0.064. With K14T the figure was 0.077 ± 0.069.

Consider K14Y, for which the abundance fitness was -0.045 ± 0.068. With K14G the figure was -0.589 ± 0.16; with K14N, -0.249 ± 0.081; with K14V, -0.03 ± 0.037. Take K14M: the abundance fitness amounted to 0.066 ± 0.033.

With K14F, the abundance fitness came out at 0.102 ± 0.056. For the variant K14E, the abundance fitness was -0.073 ± 0.071. With S42P the figure was -0.159 ± 0.05; with S42G, -0.272 ± 0.28. The result for S42D reads 0.039 ± 0.07; that for S42M, 0.012 ± 0.037. The result for L32C reads -0.136 ± 0.052; that for L32K, -0.169 ± 0.056; that for L32M, -0.032 ± 0.053.

L32T: the abundance fitness was -0.211 ± 0.047. For T51P, the abundance fitness is -0.355 ± 0.035. The result for T51K reads -0.115 ± 0.037; that for T51V, -0.115 ± 0.048; that for T51N, -0.082 ± 0.048. With G26K the figure was -0.207 ± 0.049. The result for G26D reads -0.306 ± 0.084; that for G26E, -0.397 ± 0.073; that for G26I, -0.284 ± 0.05. Take G26Y: the abundance fitness was -0.169 ± 0.042. The result for G26A reads 0.082 ± 0.065; that for G26Q, -0.584 ± 0.12. The result for G26W reads -0.591 ± 0.035. The result for G26L reads -0.162 ± 0.028; that for G26F, -0.02 ± 0.032; that for G31H, -0.059 ± 0.054. G31R: the abundance fitness is -0.107 ± 0.038.

As to G31E, the abundance fitness was -0.48 ± 0.1. The result for G31A reads -0.226 ± 0.042. The result for G31K reads -0.129 ± 0.076; that for S48Q, -0.085 ± 0.038.

As to S48C, the abundance fitness is -0.003 ± 0.075. S48K: the abundance fitness was -0.088 ± 0.042. Consider V29C, for which the abundance fitness was -0.104 ± 0.064. The result for V29P reads -0.345 ± 0.042; that for V29T, -0.258 ± 0.034. For V29N, the abundance fitness is -0.551 ± 0.055. For V29K, the abundance fitness was -0.129 ± 0.037. Turning to V29I, the abundance fitness was found to be 0.124 ± 0.051.

On to R43S, for which the abundance fitness turned out to be 0.064 ± 0.029. The result for R43H reads 0.004 ± 0.048; that for L41I, -0.315 ± 0.056; that for L41G, -0.107 ± 0.11. The result for L41W reads -0.25 ± 0.055; that for L41H, -0.37 ± 0.05; that for L41K, -0.193 ± 0.032. Take W64G: the abundance fitness was -0.942 ± 0.093. With W64T the figure was -1.31 ± 0.12; with W64L, -0.822 ± 0.047. With W64A the figure was -1.17 ± 0.089. Turning to W64C, the abundance fitness was -0.946 ± 0.17. With W64S the figure was -1.3 ± 0.097. With W64V the figure was -1.15 ± 0.087; with K45F, -0.243 ± 0.035; with K45A, -0.129 ± 0.11. With P46Q the figure was -0.053 ± 0.082. For the variant P46M, the abundance fitness is -0.214 ± 0.06. Take P46H: the abundance fitness was -0.077 ± 0.05. Regarding P46I, the abundance fitness was -0.071 ± 0.046. With P46A the figure was -0.236 ± 0.28.

As to P46Y, the abundance fitness was -0.078 ± 0.035.

As to P46C, the abundance fitness was -0.319 ± 0.079. For F25T, the abundance fitness is -0.449 ± 0.063.

Turning to F25C, the abundance fitness was -0.707 ± 0.067. Consider F25I, for which the abundance fitness is -0.711 ± 0.14.

On to F25A, for which the abundance fitness was -0.827 ± 0.079.

Regarding F58R, the abundance fitness is -0.906 ± 0.064. The result for L5S reads -0.231 ± 0.03. With L5A the figure was 0.028 ± 0.028; with L5P, -0.076 ± 0.036; with L5C, -0.03 ± 0.052.

For the variant L5M, the abundance fitness was found to be 0.122 ± 0.029.

For L5T, the abundance fitness came to 0.015 ± 0.032. With L65P the figure was -1.03 ± 0.051.

On to L65W, for which the abundance fitness was -0.44 ± 0.12. With L65E the figure was -1.28 ± 0.24; with L65F, -0.193 ± 0.042.

For the variant L50T, the abundance fitness is -0.808 ± 0.063. On to L50P, for which the abundance fitness is -1.04 ± 0.069. The result for L50F reads -0.315 ± 0.052.

For L50A, the abundance fitness was -0.748 ± 0.049. The result for L50W reads -0.12 ± 0.081; that for T4R, -0.13 ± 0.035.

With T4G, the abundance fitness is -0.282 ± 0.035. With T4Q the figure was -0.254 ± 0.033. The result for T4M reads 0.037 ± 0.03. The result for T4P reads -0.179 ± 0.039; that for T4C, -0.3 ± 0.073; that for T4S, -0.244 ± 0.034.

For K12M, the abundance fitness is -0.237 ± 0.037. With K12Y, the abundance fitness is -0.528 ± 0.058. With K12P the figure was -0.244 ± 0.06; with K12T, -0.271 ± 0.045; with K12N, -0.27 ± 0.086. With Q10R the figure was -0.038 ± 0.055; with A16K, 0.001 ± 0.051. The result for A16D reads -0.055 ± 0.067; that for A16F, -0.198 ± 0.058. As for A16R, the abundance fitness turned out to be 0.036 ± 0.031. With E13A the figure was -0.072 ± 0.044. With E13K the figure was -0.101 ± 0.043; with E13T, -0.144 ± 0.05. In the case of E13C, the abundance fitness was -0.205 ± 0.091. With E13N the figure was -0.116 ± 0.09. The result for E13W reads -0.357 ± 0.047; that for E13Y, -0.08 ± 0.062; that for K53C, -0.405 ± 0.16. For the variant K53H, the abundance fitness is -0.194 ± 0.063. With K53T the figure was -0.166 ± 0.036. With K53R the figure was -0.09 ± 0.028; with K53Y, -0.061 ± 0.14. With K53L the figure was -0.101 ± 0.051. Consider K53V, for which the abundance fitness was -0.259 ± 0.082.

K53M: the abundance fitness is -0.373 ± 0.098. With K53W the figure was -0.298 ± 0.061. With K53P the figure was -0.282 ± 0.034; with P44M, -0.196 ± 0.05.

On to P44R, for which the abundance fitness is -0.03 ± 0.042. For the variant P44V, the abundance fitness was -0.161 ± 0.035. The result for P44N reads -0.385 ± 0.11. The result for P44F reads -0.105 ± 0.045; that for P44A, -0.103 ± 0.038. The result for Q52A reads 0.042 ± 0.03.

Q52P: the abundance fitness is 0.01 ± 0.029. The result for Q52L reads -0.025 ± 0.032.

Take Q52D: the abundance fitness was 0.017 ± 0.12. Take Q52E: the abundance fitness is -0.016 ± 0.067. The result for Q68K reads 0.062 ± 0.041. The result for Q68N reads -0.068 ± 0.05.

As to Q68F, the abundance fitness was -0.099 ± 0.036.

Turning to L7E, the abundance fitness was 0.016 ± 0.051. With L7V the figure was -0.023 ± 0.032; with L7S, -0.041 ± 0.032.

On to L7W, for which the abundance fitness was -0.215 ± 0.031.

L7R: the abundance fitness is -0.045 ± 0.03.

The values are drawn from the Human Domainome abundance scans (Beltran et al. 2025).
